# Assay results reported in patent US7226603.
# Legend:
# [1] = target: T1, HBV core antigen (hepatitis B virus), P03146; assay: relative dissociation constant (KD^Rel), fd fusion phage with HBV core antigen in solution
# T1 chain: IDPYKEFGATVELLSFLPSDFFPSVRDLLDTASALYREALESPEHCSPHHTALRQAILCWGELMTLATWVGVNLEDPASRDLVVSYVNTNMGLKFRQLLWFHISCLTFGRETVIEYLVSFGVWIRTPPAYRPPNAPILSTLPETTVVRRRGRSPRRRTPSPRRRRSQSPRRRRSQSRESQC
# [2] = target: T2, C-terminally truncated HBV core antigen (aa3-148) (hepatitis B virus), P03146; assay: EDC/sulpho-NHS crosslinking, SDS-PAGE band shift
# T2 chain: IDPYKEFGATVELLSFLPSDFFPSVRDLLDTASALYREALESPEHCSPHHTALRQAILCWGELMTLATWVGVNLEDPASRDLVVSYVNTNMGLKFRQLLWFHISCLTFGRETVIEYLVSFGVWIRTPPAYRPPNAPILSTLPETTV
Binder,Kd [1] [nM],yield of the shifted (crosslinked) protein band [2] [%]
ADRSLLGRMKGA (modifications not checked) [fd fusion phage carrying … (SEQ ID NO: 19)],1.09,–
ADGAHRSLLGRMKGA (modifications not checked) [fd fusion phage carrying … (SEQ ID NO: 24)],0.94,–
ADGALLGRMKRA (modifications not checked) [fd fusion phage carrying … (SEQ ID NO: 16)],181,–
ADGYQRSLLGRMKGA (modifications not checked) [fd fusion phage carrying … (SEQ ID NO: 25)],0.88,–
ADGSLLGRMKPA (modifications not checked) [fd fusion phage carrying … (SEQ ID NO: 15)],322,–
ADGSRSSLLGRMKGA (modifications not checked) [fd fusion phage carrying … (SEQ ID NO: 20)],1.96,–
ADGALLGRMKPA (modifications not checked) [fd fusion phage carrying … (SEQ ID NO: 14)],767,–
ADGTLLGRMKLA (modifications not checked) [fd fusion phage carrying … (SEQ ID NO: 17)],20,–
ADGHRSSLLGRMKGA (modifications not checked) [fd fusion phage carrying … (SEQ ID NO: 22)],1.4,–
MHRSLLGRMKGA (modifications not checked) [peptide … (SEQ ID NO: 40)],–,< 50
ADGPRSSLLGRMKGA (modifications not checked) [fd fusion phage carrying … (SEQ ID NO: 23)],0.84,–
ADGTQRSLLGRMKGA (modifications not checked) [fd fusion phage carrying … (SEQ ID NO: 26)],0.84,–
